Molecular target: His-Fc-G67 polypeptide
Test: co-sedimentation; Herceptin on Herceptin-modified liposomes (Her-Lipo), evaluated semi-quantitatively by SDS-PAGE and silver staining; no data shown

amount of Herceptin on Her-Lipo per 100 µg lipid (µg of Herceptin per 100 µg lipid): 0.4
Substance: Herceptin (trastuzumab) (antibody)
